Source: patent US20220041658A1 (PROTAGONIST THERAPEUTICS, published 2022)
Positions of bridges follow the written chain, without caps; N, C: chain ends. Non-standard residues stand in square brackets, D forms with d. Trp(7-Me) = Cc1cccc2c(C[C@H](N)C(=O)O)c[nH]c12; 2Nal = N[C@@H](Cc1ccc2ccccc2c1)C(=O)O; AEF = NCCOc1ccc(C[C@H](N)C(=O)O)cc1; Cit = NC(=O)NCCC[C@H](N)C(=O)O; Pen = CC(C)(S)[C@H](N)C(=O)O; αMeK = C[C@](N)(CCCCN)C(=O)O; Aib = CC(C)(N)C(=O)O; βAla = NCCC(=O)O

T1: interleukin-23 receptor (IL-23R) (human, UniProt Q5VWK5 24-629)
T1 sequence (looked up): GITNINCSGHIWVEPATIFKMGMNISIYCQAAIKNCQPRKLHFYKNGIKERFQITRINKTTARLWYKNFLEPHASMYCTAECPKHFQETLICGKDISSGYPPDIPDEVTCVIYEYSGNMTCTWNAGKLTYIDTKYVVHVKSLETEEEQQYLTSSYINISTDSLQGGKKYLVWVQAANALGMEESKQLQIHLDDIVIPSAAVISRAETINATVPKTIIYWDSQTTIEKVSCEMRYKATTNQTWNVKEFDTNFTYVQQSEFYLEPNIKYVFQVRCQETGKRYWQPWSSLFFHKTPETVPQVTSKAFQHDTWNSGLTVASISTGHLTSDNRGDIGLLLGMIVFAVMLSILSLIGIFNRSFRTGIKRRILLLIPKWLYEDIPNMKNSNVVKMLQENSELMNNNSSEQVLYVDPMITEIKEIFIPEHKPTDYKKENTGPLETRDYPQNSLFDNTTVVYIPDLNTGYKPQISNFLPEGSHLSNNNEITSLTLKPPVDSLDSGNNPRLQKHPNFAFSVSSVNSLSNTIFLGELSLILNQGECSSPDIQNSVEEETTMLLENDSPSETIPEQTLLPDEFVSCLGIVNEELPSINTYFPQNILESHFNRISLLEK


Biological target: T1, interleukin-23 receptor (IL-23R)
Assay: cell-based or functional assay

Row | Binder | pStat3 HTRF IC50 [nM]
1 | XNTXQXXXXKNX (Ac-[Pen]-N-T-[W(7-Me)]-Q-[Pen]-Phe[4-(2-aminoethoxy)]-[2-Nal]-[DiethylGly]-[Lys(Ac)]-N-[bA]-NH2; Pen-Pen disulfide) [Peptide of SEQ ID NO: 276] | 0.564
2 | XNTXKXXXXKNV (Ac-[Pen]-NT-[W(7-Me)]-[Lys(Ac)]-[Pen]-Phe[4-(2-aminoethoxy)]-[2-Nal]-[a-MeLys]-[Lys(Ac)]-N-V-NH2; Pen-Pen disulfide) [Peptide of SEQ ID NO: 250] | 1.82
3 | Ac-[Pen]NT[Trp(7-Me)][Cit][Pen][AEF][2Nal][αMeK]K(Ac)[βAla][βAla]-NH2 (disulfide 1-6; SMILES CC(=O)NCCCC[C@H](NC(=O)[C@](C)(CCCCN)NC(=O)[C@H](Cc1ccc2ccccc2c1)NC(=O)[C@H](Cc1ccc(OCCN)cc1)NC(=O)[C@H]1NC(=O)[C@H](CCCNC(N)=O)NC(=O)[C@H](Cc2c[nH]c3c(C)cccc23)NC(=O)[C@H]([C@@H](C)O)NC(=O)[C@H](CC(N)=O)NC(=O)[C@@H](NC(C)=O)C(C)(C)SSC1(C)C)C(=O)NCCC(=O)NCCC(N)=O) [Peptide of SEQ ID NO: 268] | 3.24
4 | Ac-[Pen]NT[Trp(7-Me)][Cit][Pen][AEF][2Nal][αMeK]K(Ac)NT-NH2 (disulfide 1-6; SMILES CC(=O)NCCCC[C@H](NC(=O)[C@](C)(CCCCN)NC(=O)[C@H](Cc1ccc2ccccc2c1)NC(=O)[C@H](Cc1ccc(OCCN)cc1)NC(=O)[C@H]1NC(=O)[C@H](CCCNC(N)=O)NC(=O)[C@H](Cc2c[nH]c3c(C)cccc23)NC(=O)[C@H]([C@@H](C)O)NC(=O)[C@H](CC(N)=O)NC(=O)[C@@H](NC(C)=O)C(C)(C)SSC1(C)C)C(=O)N[C@@H](CC(N)=O)C(=O)N[C@H](C(N)=O)[C@@H](C)O) [Peptide of SEQ ID NO: 262] | 0.996
5 | Ac-[Pen]NT[Trp(7-Me)][Aib][Pen][AEF][2Nal][αMeK]K(Ac)N[βAla]-NH2 (disulfide 1-6; SMILES CC(=O)NCCCC[C@H](NC(=O)[C@](C)(CCCCN)NC(=O)[C@H](Cc1ccc2ccccc2c1)NC(=O)[C@H](Cc1ccc(OCCN)cc1)NC(=O)[C@H]1NC(=O)C(C)(C)NC(=O)[C@H](Cc2c[nH]c3c(C)cccc23)NC(=O)[C@H]([C@@H](C)O)NC(=O)[C@H](CC(N)=O)NC(=O)[C@@H](NC(C)=O)C(C)(C)SSC1(C)C)C(=O)N[C@@H](CC(N)=O)C(=O)NCCC(N)=O) [Peptide of SEQ ID NO: 241] | 12.5
6 | XNTXKXXXXKNR (Ac-[Pen]-NT-[W(7-Me)]-[Lys(Ac)]-[Pen]-Phe[4-(2-aminoethoxy)]-[2-Nal]-[a-MeLys]-[Lys(Ac)]-N-R-NH2; Pen-Pen disulfide) [Peptide of SEQ ID NO: 243] | 1.87
7 | XNTXKXXXXKNL (Ac-[Pen]-NT-[W(7-Me)]-[Lys(Ac)]-[Pen]-Phe[4-(2-aminoethoxy)]-[2-Nal]-[a-MeLys]-[Lys(Ac)]-N-L-NH2; Pen-Pen disulfide) [Peptide of SEQ ID NO: 244] | 1.45
8 | Ac-[Pen]NT[Trp(7-Me)][Cit][Pen][AEF][2Nal][αMeK]K(Ac)N[dT]-NH2 (disulfide 1-6; SMILES CC(=O)NCCCC[C@H](NC(=O)[C@](C)(CCCCN)NC(=O)[C@H](Cc1ccc2ccccc2c1)NC(=O)[C@H](Cc1ccc(OCCN)cc1)NC(=O)[C@H]1NC(=O)[C@H](CCCNC(N)=O)NC(=O)[C@H](Cc2c[nH]c3c(C)cccc23)NC(=O)[C@H]([C@@H](C)O)NC(=O)[C@H](CC(N)=O)NC(=O)[C@@H](NC(C)=O)C(C)(C)SSC1(C)C)C(=O)N[C@@H](CC(N)=O)C(=O)N[C@@H](C(N)=O)[C@H](C)O) [Peptide of SEQ ID NO: 263] | 0.603
9 | XNTXKXXXXKSX (Ac-[Pen]-N-T-[W(7-Me)]-[Lys(Ac)]-[Pen]-Phe[4-(2-aminoethoxy)]-[2-Nal]-[a-MeLys]-[Lys(Ac)]-S-[bA]-NH2; Pen-Pen disulfide) [Peptide of SEQ ID NO: 271] | 1.91
10 | XNTXQXXXXXXX (Ac-[Pen]-N-T-[W(7-Me)]-Q-[Pen]-Phe[4-(2-aminoethoxy)]-[2-Nal]-[a-MeLys]-[Cit]-[bA]-[bA]-NH2; Pen-Pen disulfide) [Peptide of SEQ ID NO: 279] | 5.97
11 | XNTXKXXXXEXX (Ac-[Pen]-N-T-[W(7-Me)]-[Lys(Ac)]-[Pen]-Phe[4-(2-aminoethoxy)]-[2-Nal]-[a-MeLys]-E-[bA]-[bA]-NH2; Pen-Pen disulfide) [Peptide of SEQ ID NO: 273] | 2.69
12 | XNTXKXXXXKNX (Ac-[Pen]-NT-[W(7-Me)]-[Lys(Ac)]-[Pen]-Phe[4-(2-aminoethoxy)]-[2-Nal]-[a-MeLys]-[Lys(Ac)]-N-[Cit]-NH2; Pen-Pen disulfide) [Peptide of SEQ ID NO: 249] | 0.639
13 | XNTXKXXXXKNI (Ac-[Pen]-NT-[W(7-Me)]-[Lys(Ac)]-[Pen]-Phe[4-(2-aminoethoxy)]-[2-Nal]-[a-MeLys]-[Lys(Ac)]-N-I-NH2; Pen-Pen disulfide) [Peptide of SEQ ID NO: 255] | 2.5
14 | XNTXKXXXXKNP (Ac-[Pen]-NT-[W(7-Me)]-[Lys(Ac)]-[Pen]-Phe[4-(2-aminoethoxy)]-[2-Nal]-[a-MeLys]-[Lys(Ac)]-N-[(D)Pro]-NH2; Pen-Pen disulfide) [Peptide of SEQ ID NO: 254] | 3.65
15 | Ac-[Pen]NT[Trp(7-Me)][Cit][Pen][AEF][2Nal][αMeK]K(Ac)N[dR]-NH2 (disulfide 1-6) [Peptide of SEQ ID NO: 256] | 0.754
